Measured values from the domain aggregation screens of Martell et al. (2025).

Assay: soluble fraction after stress (log2 fold change); higher = more stays soluble; pooled small domains, quantitative proteomics
Conditions: stress: 50 degC
In short: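 After stress at 50°C, the amount of each protein still soluble was measured. This was done on pooled custom libraries of small protein domains, using high-throughput quantitative proteomics. The figure given is a base-two log fold change and stands for aggregation propensity, with higher values meaning more protein stays in solution.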

Sequence	soluble fraction (log2)
HMAIDLPVTTVNGKDYYYYDVQPKETIFSLSQRLGISREEIISYNPGVDGGLKAYTRLYFPVESGL	-0.201
HMAIDLSLIPGNLLRELHGAVEDGDMYRIRELIRSISAVDEKVGKELLLLAERYDYERLLELVND	-0.384
HMAIDWVQIKAEYISGTMSASKLAEKHGVSVYAIRKRSGKERWQELRRQNQSETANKIAEKI	-1.6
HMAIDYYQTLINLGYKLQDRGDYWQTSAIHRGGDNPTALQIYKNTGVWKDYVSGGGFKPFKALVEKSD	-0.802
HMAIELTPRQLDIIELVRKHAPITGEQIAELLGVTRPSIRSDLGLLVMLGYIDAKPKVGYFAGPRM	-0.597
HMAIGSRLKVTTDATNLNIRSTPSTEGDIVGKAAHHEIVTLVEKTDDSWWKIKTNDGEEGYAYAQYLSPV	0.12
HMAIIQSNNIFKSQKEIVDEILVELDIPKDKWNFFHMLISSGYKDEFDTNRIYEIIQTNYNMMDR	-0.205
HMAILDTALDVLSMNLKDNYTSFQILRQAAIAGKIAFNLTEKNPLGGVIEVELTGDDLETWIEAATW	-0.115
HMAIMISINAKGEVAWNDQIISLDDLAQRFNAAGQQAQKPTVQLRADKESRYDMVAQVMSRASEAGLSDIA	-0.781
HMAIRLIKASREFNVGISTIVEFLEKKGHAIDSDPNSKIPDELYQLIEKEFQTEGSVKKAAKQI	-0.0914
HMAITLEVAKKHLEMWLEAESEVAINQSYTIGGKSFTRANLAEIRKQIEYWSNKVAELENLA	0.0438
HMAITYETKVISGVNLRSAPSTSASVYQLIPKGENIHVVQKVNDYWLKVQTKDGKTGYISASSKYTNYIG	-0.773
HMAIWAVFYKNEPFNLKSFNSLTSYPGPKYKKTSFSNPGHALNLAKKLNLTFGTEDFQVVKLTQGTIV	-2.61
HMAKIEVENLEETILENLKANNGFMPYNDKTSPEEIYEVFHVSKKHFKNSLGGLMKKGLIFQNEKGTKL	-0.0312
HMAKITERVMGSAALRDYDPNYLPDEVLKALDGYPPFDGYVYKDGILYARVKIGDTFFIIPPI	-2.27
HMAKKDVESTLGGRLRVARVRAGLTQVELARMLGMNSVSLSNVEGGRRGLSMKQLVRVAKILEVPVAYLLG	-1.65
HMAKMPSIIIMKDGVIRTSELEQIERDENWLNEEMKKQHIDNPEDVFLAEFWDGKVNFILQDGKIK	0.0716
HMAKNDSGLNNHTFNTIRDALQKALTDGPQEAKKLTENLPFPADKIITVIRYLADHDEHFSLEDGIISLT	0.24
HMAKNIEVPNLVGSTISVARNDLKQLGLHVIVRDSVWSEDKKIDTILEQFPEPGKKLKPEGVVQVVVSI	-0.408
HMAKNSVLTIELWNSTAFKWRKDTEPYSESMSVDFNRSVRLTDGISIMFSKFGFVPGIQYLIPLQT	-0.0652
HMAKQQTTTTAHVVTTGETLYSIAQKNGISVEELKKSNNITSDKLRPGQTLHITKVSKTSSTAK	0.365
HMAKRPRFEDVIKEINTEIQKRKGKWNLTILSWMDFDDVAQVIRIHIYRKWHLYDPSKPLGPWLNR	0.0232
HMAKSETAKIKATPYGWLRVRDTPSLNGAEIARVNSGDEYKVLEKETGWIKIKVSDTVEGWVSDAYIELS	-0.0312
HMAKSKYETHVLPNLDKIIKWAKAGATAKEIAANLHIAYSTFRKYLDEGQEGDERYAALSAAFAQA	0.321
HMALDLNEDEKLLVELIEKAGGTAGLGELKEASGLSGKKWDKTTKNLSKEGLIKVEKNESGLWVHLT	0.153
HMALDLPVKRVKGKEYYYYKVKKGESLYGISKHLGLPLDSIVKSNPSVADGVRKGDMLLFPLEEYT	-0.307
HMALKQADFDFIRQMIQQRAAIVLDDNKHYFVESRLGPVVEETGSKSLDQLIDQLRSSSNSLLQQKVTEAI	-0.199
HMALLSDEERIATVFAARLGGYSHQEIYKLLQDRFGPSLPAAYSEKSVLTDLQTALSQVPSL	-0.208

Sequence	soluble fraction (log2)
HMALPEHIEPFLRGLGQALAEGDSYEDVQERLLRAYPYLDSTEFQTALARVIFISDLWGRLN	-1.55
HMALPPPELRGATGEAVTALRPAGIALIQGKRYDVLAEGGEWIAAGAAVRVRDIRNGHLIVSDA	0.00767
HMALRFMAYGRINGTNVHFRTGASASTASLGRYSRGTEFGVYDKIGGWYRVRLLSTGQEGYVYSRYLTLTG	-2.67
HMALSGTVQNFAGGIMILIFRPFKTGDYIEALGYFGKVSEVNIVSTKLRTFDNKTIILPNGALSNGNIQNY	-0.889
HMALSSQQIKDMQSWYGTKADGIWGSKSTTAAGGRDAGAAYSLYSSNKGRYSSYTDYMSYGGG	0.072
HMALSTRERMSFVLEVLKEKEFIPFVDLFSPEEGRAGVVVTFLALMELMKDSLIEIVQTKNFGEIHVRARL	-0.218
HMALTQEQLGQRLQDARKSVALTQQEVAEDLGLSRESLAQIEAGSRSVNSLEIVRLARLYGRSLSSILLE	-0.612
HMALYSEQVSEIEKALMSLPPKYQLVMLLLYAEDLKYEQIAEILDEPIGTVKTKIHRARKILKERF	-0.46
HMAMDSGELEAIVDRLISEHPDDWAALTAGDDRERKKKSGFFVGEVMKATRGQADGRAVIELLASRSA	0.00605
HMAMDYTVVHSDRRTIAIQIQRDGRVVVRAPYAATAEDIRRVVDSHRDWVEKTVRRQQEQLAAS	-0.0261
HMAMNITQRHQEILAVIKQEKHITVSEISKLLGVSEVTIRKDFNYLEEKNLIYRHHGGASLNN	-1.58
HMAMPQPVARALHRLGQDISAARRMRRLSQEDLAQRIGTSLSTVRRMEDGYPGTALHTFLRALHML	-0.261
HMAMSDFDALSNRISTLSQGRASAVRMKDGIVSLVLDIGGLSAEERKAMTAAIEGEGRGYPSVTQVRILET	0.0462
HMANAGKFDSDMGEKINFPGNRVSLTPSELEAARELAAIMGDRFFSQLIPTTSKVTVTEMLQSLK	0.3
HMANGTVKWFNTTKGFGFIAPETGGKDVFVHISAVERSGLTGLADDQKVTFDVEAGRDGRESAVNLAL	0.0396
HMANKTVPNVSGKTVAEARAIIENQSLQVGEEKEEYSDSVAEGYIIRTNPTAGSQKKEQSKIDLVVSKG	0.203
HMANLDSLIKKVGQYAKDKQSISVDGIKKDLSIDKDMVKEALAELLKIGVVDKPDEAGQYKVIM	0.299
HMANPMFAEIKKVQKQLNEMGYQAGPADGLWGNKTENAVKLLLSDNNLKWDGTFDQNEIKIIEEIFLSND	-0.256
HMANPRLEYFLSNITPDWNEFSPELKNQLLIENADPYKLEQYILQVSPDMYIEEQNAPGTVRQMAGDITG	0.09
HMANSANARKSLVSKLIAGGKIASQSDLVKALKKQGIVVTQGTASRDLEDIGAIRVRNSEGEIVYALT	0.081
HMANSDEEVLNKISTKAPTFNELINKIKEFDDTKEINDIWLDVYRYYITDEEYKEIAKKVITGLTYTNQ	-0.177
HMANSLLVTAQAGGQKLFNFLKRSLHAENNEIHRWIRTGQVRINKKRTKAFDIVHENDEIRIPPFALNR	-0.284
HMANSREIPKLAGIEQEEAVKQLLDLDLKPVIEEITDDDTDAGDVVRTDPAAGEHVAVDTEITVFISIG	-0.421
HMANVQLAKNLKTLRKKYNYTQQDVSTFLNITRQAYSHYEQALREPDLNTLVHLSRFYQVTLDELI	-3.8
HMANYHDIAADLRSKINHGFYEEEKKLPKQSELAADYQTSRVTIQKALNILQMEGIIYGKKGTGTFIRDSY	-0.214
HMANYTVNAYNNGGTGGSVNMRSGPSTNDGIVVRVPHGATVTGTKSGTWSYMTYNTYTGYMMSVYLDEQS	-0.157
HMAPAPYLVKVTANKLNIRSGPGTNYKIQGAITDKGTYTIVDTQGRWGKLKSGAGWIYLNYTKK	-1.9
